Source: IntAct's records for PubMed 16951355

B1: ICOS ligand (Homo sapiens), O75144 (parent)
chain: MRLGSPGLLFLLFSSLRADTQEKEVRAMVGSDVELSCACPEGSRFDLNDVYVYWQTSESKTVVTYHIPQNSSLENVDSRYRNRALMSPAGMLRGDFSLRLFNVTPQDEQKFHCLVLSQSLGFQEVLSVEVTLHVAANFSVPVVSAPHSPSQDELTFTCTSINGYPRPNVYWINKTDNSLLDQALQNDTVFLNMRGLYDVVSVLRIARTPSVNIGCCIENVLLQQNLTVGSQTGNDIGERDKITENPVSTGEKNAATWSILAVLCLLVVVAVAIGWVCRDRCLQHSYAGAWAVSPETELTGHV

Variants of: B1
Settings: with icos_human ICOS

effect of a mutation on the interaction | Variant
decreasing interaction strength | L114A
decreasing interaction strength | N102Q
with no effect | N186Q
decreasing interaction strength | V76A
with no effect | Q123A
with no effect | L98A
with no effect | P141A
with no effect | N70Q
with no effect | S87A
with no effect | V143A
decreasing interaction strength | V62A
decreasing interaction strength | H66A
disrupting interaction strength | F122A
with no effect | L196A
with no effect | N137Q
with no effect | G195A
with no effect | T64A
decreasing interaction strength | E124A
with no effect | N225Q
disrupting interaction strength | Y80A
with no effect | D77A
decreasing interaction strength | L120A
with no effect | F138A
with no effect | G121A
